# Measurements as given in paper PMC5507294 (PLoS ONE, 2017).
# B1: β-catenin (natural protein, human (endogenous in HECs), UniProt P35222 1-781, looked up)
# chain: MATQADLMELDMAMEPDRKAAVSHWQQQSYLDSGIHSGATTTAPSLSGKGNPEEEDVDTSQVLYEWEQGFSQSFTQEQVADIDGQYAMTRAQRVRAAMFPETLDEGMQIPSTQFDAAHPTNVQRLAEPSQMLKHAVVNLINYQDDAELATRAIPELTKLLNDEDQVVVNKAAVMVHQLSKKEASRHAIMRSPQMVSAIVRTMQNTNDVETARCTAGTLHNLSHHREGLLAIFKSGGIPALVKMLGSPVDSVLFYAITTLHNLLLHQEGAKMAVRLAGGLQKMVALLNKTNVKFLAITTDCLQILAYGNQESKLIILASGGPQALVNIMRTYTYEKLLWTTSRVLKVLSVCSSNKPAIVEAGGMQALGLHLTDPSQRLVQNCLWTLRNLSDAATKQEGMEGLLGTLVQLLGSDDINVVTCAAGILSNLTCNNYKNKMMVCQVGGIEALVRTVLRAGDREDITEPAICALRHLTSRHQEAEMAQNAVRLHYGLPVVVKLLHPPSHWPLIKATVGLIRNLALCPANHAPLREQGAIPRLVQLLVRAHQDTQRRTSMGGTQQQFVEGVRMEEIVEGCTGALHILARDVHNRIVIRGLNTIPLFVQLLYSPIENIQRVAAGVLCELAQDKEAAEAIEAEGATAPLTELLHSRNEGVATYAAAVLFRMSEDKPQDYKKRLSVELTSSLFRTEPMAWNETADLGLDIGAQGEPLGYRQDDPSYRSFHSGGYGQDALGMDPMMEHEMGGHHPGADYPVDGLPDLGHAQDLMDGLPPGDSNQLAWFDTDL
# notes: β-catenin, endogenous in primary human ectocervical cells (HECs); Endogenous protein; its phosphorylation state in the co-precipitate was not determined; source: endogenous, lysate of primary human ectocervical cells (HECs) in RIPA buffer
# Experiments:
# [1] = biological target: T1, PR55α, the α isoform of the 55 kDa B-type regulatory subunit of PP2A (human (endogenous in HECs), UniProt P63151 1-447); experiment: co-IP; GSK-3β, PR55α or PP2Ac immunoprecipitated (antibody with protein A or protein G agarose, 90 min at 4°C) from RIPA lysates of HECs with equal amounts of protein; immunoblot for β-catenin; cells 3 d in KGM or in CR culture (F+Y+J2); conditions: partners not purified
# T1 construct: PR55α, α isoform of the 55 kDa B-type regulatory subunit of protein phosphatase 2A, endogenous in primary human ectocervical cells (HECs); also called PP2A regulatory subunit; source: endogenous, lysate of primary human ectocervical cells (HECs) in RIPA buffer
# T1 sequence (looked up): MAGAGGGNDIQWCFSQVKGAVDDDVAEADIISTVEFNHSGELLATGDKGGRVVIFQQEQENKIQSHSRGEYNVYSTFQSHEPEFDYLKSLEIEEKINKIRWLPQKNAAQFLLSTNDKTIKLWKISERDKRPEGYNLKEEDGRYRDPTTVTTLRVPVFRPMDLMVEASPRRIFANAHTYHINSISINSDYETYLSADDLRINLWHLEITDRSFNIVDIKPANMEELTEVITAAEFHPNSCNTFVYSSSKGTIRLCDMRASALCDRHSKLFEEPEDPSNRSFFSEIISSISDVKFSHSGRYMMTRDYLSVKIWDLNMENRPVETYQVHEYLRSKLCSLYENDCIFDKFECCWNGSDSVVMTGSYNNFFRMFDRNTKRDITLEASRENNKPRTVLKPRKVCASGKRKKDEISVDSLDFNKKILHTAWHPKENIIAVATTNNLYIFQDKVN
# [2] = biological target: T2, PP2A catalytic subunit (PP2Ac) (human (endogenous in HECs), UniProt P67775 1-309); experiment: as above; conditions: partners not purified
# T2 construct: catalytic (C) subunit of protein phosphatase 2A, endogenous in primary human ectocervical cells (HECs); also called PP2A C subunit; source: endogenous, lysate of primary human ectocervical cells (HECs) in RIPA buffer
# T2 sequence (P67775 whole entry): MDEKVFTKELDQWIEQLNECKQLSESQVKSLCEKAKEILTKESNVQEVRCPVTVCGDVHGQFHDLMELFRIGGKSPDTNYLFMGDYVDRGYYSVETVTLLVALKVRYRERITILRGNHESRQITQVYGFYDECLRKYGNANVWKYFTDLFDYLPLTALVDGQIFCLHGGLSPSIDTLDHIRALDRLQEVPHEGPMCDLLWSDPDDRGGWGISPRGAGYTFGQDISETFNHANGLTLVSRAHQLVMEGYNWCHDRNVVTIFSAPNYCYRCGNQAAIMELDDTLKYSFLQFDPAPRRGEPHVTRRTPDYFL
binder,measurement,setting,value
B1,fold more co-precipitated in CR cells than in KGM,[1],25 fold
same,fold more co-precipitated in CR cells than in KGM,[2],3.8 fold
